Results reported in the RNAGym collection of RNA variant scans (doi:10.1021/acssynbio.7b00057).

B1: Pistol ribozyme (parent)
chain: GGGUCGUUGUUCCAUAAUCGCGUGGAUAUGGCACGCAAGUUUCUACCGGGCACCGUAAAUGUCCGACUGGAGCCGUUCGGGCGGCUAUAAACAGACCUCAGGCCCGAAGCGUGGCGGCACCUGCCGCCGGUGGUAAAAAAGAUCGGAAGAGCACACGUCU

Variants of: B1
Test: aptazyme ON/OFF ratio, guanine; higher = stronger switching; co-transcriptional cleavage with and without guanine

Row | Variant | aptazyme ON/OFF ratio
1 | U8G G9C U10G U11C C12U C13A | 1.03
2 | U8G G9C U10G U11C C12U C13U | 1.03
3 | U8G G9C U10G U11C C12U C13G | 1.02
4 | U8G G9C U10A U11G C12U C13U | 1.17
5 | U8G G9C U10G U11G C12A C13A | 1.18
6 | U8G G9C U10G U11G C12A C13G | 1.15
7 | U8G G9C U10G U11G C12A C13U | 1.3
8 | U8G G9C U10C C12U | 1.03
9 | U8G G9C U10C C12G | 1.08
10 | U8G G9C U10C C12A | 1.05
11 | U8G G9C U10G C12U C13U | 1.26
12 | U8G G9C U10G C12U C13G | 1.11
13 | U8G G9C U10G C12U C13A | 1.08
14 | U8G G9U U10A C12G | 1.15
15 | U8G G9U U10A C12A | 1.43
16 | U8G G9U U10A C12U | 1.11
17 | U8G G9C U10G U11C C12A C13U | 1.03
18 | U8G G9C U10G U11C C12A C13G | 1.04
19 | U8G G9C U10G U11C C12A C13A | 1.04
20 | U8G G9U C12U C13A | 1.22
21 | U8G G9U C12U C13U | 1.14
22 | U8G G9U C12U C13G | 1.28
23 | U8G G9U U10A U11A C12U | 1.19
24 | U8G G9U U10A U11A C12G | 1.14

Row | Variant | aptazyme ON/OFF ratio
25 | U8G G9U U10A U11A C12A | 1.34
26 | U8G G9C U10G U11C C12G C13U | 1.08
27 | U8G G9C U10G U11C C12G C13G | 1.05
28 | U8G G9C U10G U11C C12G C13A | 1.08
29 | U8G G9C U10A U11G C13A | 1.08
30 | U8G G9C U10A U11G C13G | 1.04
31 | U8G G9C U10A U11G C13U | 1.05
32 | U8G G9U U10C C12U C13G | 1.08
33 | U8G G9U U10C C12U C13U | 1.2
34 | U8G G9U U10C C12U C13A | 1.11
35 | U8G G9C U11A C12A C13A | 1.07
36 | U8G G9C U11A C12A C13U | 1.06
37 | U8G G9C U11A C12A C13G | 1.05
38 | U8G G9C U10G C13U | 1.24
39 | U8G G9C U10G C13G | 1.12
40 | U8G G9C U10G C13A | 1.27
41 | U8G G9U U10C C13G | 1.03
42 | U8G G9U U10C C13A | 1.04
43 | U8G G9U U10C C13U | 1.03
44 | U8G G9U U10C U11A C12G C13U | 1.16
45 | U8G G9U U10C U11A C12G C13A | 1.08
46 | U8G G9U U10C U11A C12G C13G | 1.14
47 | U8G G9C U10C U11A C12A | 1.05
48 | U8G G9C U10C U11A C12G | 1.06

Row | Variant | aptazyme ON/OFF ratio
49 | U8G G9C U10C U11A C12U | 1.06
50 | U8G G9C U10G U11G C12A | 1.21
51 | U8G G9C U10G U11G C12U | 1.23
52 | U8G G9C U10G U11G C12G | 1.31
53 | U8G G9U U10A C12U C13A | 1.2
54 | U8G G9U U10A C12U C13U | 1.17
55 | U8G G9U U10A C12U C13G | 1.19
56 | U8G G9C U11C | 1.03
57 | U8G G9C U11G | 1.14
58 | U8G G9C U11A | 1.13
59 | U8G G9U C12A C13U | 1.07
60 | U8G G9U C12A C13G | 1.22
61 | U8G G9U C12A C13A | 1.41
62 | U8G G9C U10C U11C C12A C13U | 1.07
63 | U8G G9C U10C U11C C12A C13A | 1.02
64 | U8G G9C U10C U11C C12A C13G | 1.06
65 | U8G G9C U10G U11G | 1.2
66 | U8G G9C U10G U11C | 1.03
67 | U8G G9C U10G U11A | 1.07
68 | U8G G9C U11A C12U C13U | 1.1
69 | U8G G9C U11A C12U C13A | 1.03
70 | U8G G9C U11A C12U C13G | 1.06
71 | U8G G9C U10G U11A C12A | 1.17
72 | U8G G9C U10G U11A C12G | 1.15

Row | Variant | aptazyme ON/OFF ratio
73 | U8G G9C U10G U11A C12U | 1.07
74 | U8G G9C U11G C12U C13G | 1.13
75 | U8G G9C U11G C12U C13U | 1.25
76 | U8G G9C U11G C12U C13A | 1.1
77 | U8G G9U U10A U11A C13G | 1.09
78 | U8G G9U U10A U11A C13A | 1.19
79 | U8G G9U U10A U11A C13U | 1.25
80 | U8G G9C U10C U11G C13G | 1.1
81 | U8G G9C U10C U11G C13A | 1.17
82 | U8G G9C U10C U11G C13U | 1.16
83 | U8G G9C U10C U11C | 1.04
84 | U8G G9C U10C U11G | 1.27
85 | U8G G9C U10C U11A | 1.07
86 | U8G G9U U10C U11G C12U C13A | 1.09
87 | U8G G9U U10C U11G C12U C13G | 1.09
88 | U8G G9U U10C U11G C12U C13U | 1.24
89 | U8G G9U U10C U11A C12U | 1.11
90 | U8G G9U U10C U11A C12G | 1.12
91 | U8G G9U U10C U11A C12A | 1.14
92 | U8G G9C U10C U11G C12A | 1.07
93 | U8G G9C U10C U11G C12G | 1.1
94 | U8G G9C U10C U11G C12U | 1.25
95 | U8G G9U U10C U11A C12A C13U | 1.09
96 | U8G G9U U10C U11A C12A C13A | 1.07

Row | Variant | aptazyme ON/OFF ratio
97 | U8G G9U U10C U11A C12A C13G | 1.08
98 | U8G G9C U10G U11A C12G C13A | 1.14
99 | U8G G9C U10G U11A C12G C13G | 1.29
100 | U8G G9C U10G U11A C12G C13U | 1.2
101 | U8G G9C U10G C12G | 1.19
102 | U8G G9C U10G C12U | 1.06
103 | U8G G9C U10G C12A | 1.19
104 | U8G G9C U10C C12U C13U | 1.04
105 | U8G G9C U10C C12U C13G | 1.05
106 | U8G G9C U10C C12U C13A | 1.06
107 | U8G G9U C12A | 1.57
108 | U8G G9U C12U | 1.77
109 | U8G G9U C12G | 1.64
110 | U8G G9C U10C U11G C12A C13A | 1.08
111 | U8G G9C U10C U11G C12A C13U | 1.04
112 | U8G G9C U10C U11G C12A C13G | 1.05
113 | U8G G9U U10A U11C C12A | 1.12
114 | U8G G9U U10A U11C C12G | 1.1
115 | U8G G9U U10A U11C C12U | 1.05
116 | U8G G9C U10G U11A C12U C13U | 1.12
117 | U8G G9C U10G U11A C12U C13G | 1.15
118 | U8G G9C U10G U11A C12U C13A | 1.16
119 | U8G G9C U10C U11C C12U C13G | 1.04
120 | U8G G9C U10C U11C C12U C13A | 1.04

Row | Variant | aptazyme ON/OFF ratio
121 | U8G G9C U10C U11C C12U C13U | 1.04
122 | U8G G9C U10C U11C C12G C13A | 1.11
123 | U8G G9C U10C U11C C12G C13G | 1.09
124 | U8G G9C U10C U11C C12G C13U | 1.08
125 | U8G G9U U10A U11C C13G | 1.03
126 | U8G G9U U10A U11C C13A | 1.02
127 | U8G G9U U10A U11C C13U | 1.01
128 | U8G G9U U10G C12G C13U | 1.02
129 | U8G G9U U10G C12G C13A | 1.02
130 | U8G G9U U10G C12G C13G | 1.05
131 | U8G G9U C12G C13U | 1.31
132 | U8G G9U C12G C13A | 1.3
133 | U8G G9U C12G C13G | 1.27
134 | U8G G9U C13U | 1.41
135 | U8G G9U C13A | 1.39
136 | U8G G9U C13G | 1.1
137 | U8G G9U U10G C12A C13U | 1.05
138 | U8G G9U U10G C12A C13G | 1.04
139 | U8G G9U U10G C12A C13A | 1.03
140 | U8G G9C U10C U11A C12G C13G | 1.1
141 | U8G G9C U10C U11A C12G C13A | 1.02
142 | U8G G9C U10C U11A C12G C13U | 1.11
143 | U8G G9U U10G C12U | 1.02
144 | U8G G9U U10G C12A | 1.04

Row | Variant | aptazyme ON/OFF ratio
145 | U8G G9U U10G C12G | 1.02
146 | U8G G9U U10C C12A | 1.19
147 | U8G G9U U10C C12G | 1.41
148 | U8G G9U U10C C12U | 1.09
149 | U8G G9U U10C C12G C13G | 1.25
150 | U8G G9U U10C C12G C13A | 1.26
151 | U8G G9U U10C C12G C13U | 1.36
152 | U8G G9U U10A U11A C12A C13U | 1.22
153 | U8G G9U U10A U11A C12A C13G | 1.16
154 | U8G G9U U10A U11A C12A C13A | 1.15
155 | U8G G9C U11C C13U | 1.03
156 | U8G G9C U11C C13A | 1.06
157 | U8G G9C U11C C13G | 1.04
158 | U8G G9U U10A U11G C12G C13U | 1.37
159 | U8G G9U U10A U11G C12G C13A | 1.05
160 | U8G G9U U10A U11G C12G C13G | 1.15
161 | U8G G9U | 3.25
162 | U8G G9C U10G U11G C13U | 1.12
163 | U8G G9C U10G U11G C13A | 1.16
164 | U8G G9C U10G U11G C13G | 1.12
165 | U8G G9C U11G C12A C13G | 1.05
166 | U8G G9C U11G C12A C13U | 1.08
167 | U8G G9C U11G C12A C13A | 1.08
